Test [1] deals with ChiAVD–G42A (chicken | not stated) (UniProt P56734). Description: dynamic light scattering; 50 mM NaH2PO4/Na2HPO4, 100 mM NaCl, pH 7 at 25°C; volume distribution.
Test [2] concerns the target ChiAVD–G42F (chicken | not stated) (UniProt P56734). The test is described as above.
Test [3] has as its target Chimeric avidin ChiAVD(I117Y) (chicken | not stated) (UniProt P02701). Described as above.
The target is the same in test [4]. Description: solution NMR structure; biotin-bound ChiAVD, 13C/15N-labelled, 58°C, 800 MHz; intersubunit NOE peaks identified by inspection of avidin crystal structures and manually assigned; RDCs in bicelles at 40°C.

With “ChiAVD–G42A (from UniProt P56734 62-82; P02701 85-152)”, the stoichiometry N in test [1] was 4. On to “ChiAVD–G42F (from UniProt P56734 62-82; P02701 85-152)”, for which the stoichiometry N in test [2] is 4. As to “Chimeric avidin ChiAVD(I117Y) (from UniProt P02701 85-152)”, the stoichiometry N in test [3] and in test [4] was 4 throughout.

Values taken from PMC4069078.
